Data published in PMC2933578, “Mutational analysis of an archaeal minichromosome maintenance protein exterior hairpin reveals critical residues for helicase activity and DNA binding” (BMC Molecular Biology, 2010).

Tests used:
[1] = target: ssoMCM mutant M7 (ED327AA) (Sulfolobus solfataricus) (UniProt Q9UXG1); assay: SEC; Superose 6 size exclusion column, 250 mM NaCl; ~0.5 mg of protein; markers ferritin (440 kD) and aldolase (158 kD); self-association to the hexamer
[2] = substrate: Nc1ncnc2c1ncn2[C@@H]1O[C@H](COP(=O)(O)OP(=O)(O)OP(=O)(O)O)[C@@H](O)[C@H]1O; assay: EnzChek phosphate release ATPase assay; format: biochemical, Saccharolobus solfataricus; settings: no DNA, per monomeric MCM subunit, unit nM
Source text: EnzChek phosphate release ATPase assay on ssoMCM

[3] = target: the molecule itself; assay: SEC; Superose 6 size exclusion column, 250 mM NaCl; ~0.5 mg of protein; markers ferritin (440 kD) and aldolase (158 kD); self-association to the hexamer

**Q.** For “ssoMCM mutant M7 (ED327AA) (from UniProt Q9UXG1 1-686) (enzyme)”, which stoichiometry N [1] is on record?
**A.** 6

B1: ssoMCM mutant M3 (L325A) (enzyme, Sulfolobus solfataricus, UniProt Q9UXG1 1-686, looked up)
chain: MEIPSKQIDYRDVFIEFLTTFKGNNNQNKYIERINELVAYRKKSLIIEFSDVLSFNENLAYEIINNTKIILPILEGALYDHILQLDPTYQRDIEKVHVRIVGIPRVIELRKIRSTDIGKLITIDGILVKVTPVKERIYKATYKHIHPDCMQEFEWPEDEEMPEVLEMPTICPKCGKPGQFRLIPEKTKLIDWQKAVIQERPEEVPSGQLPRQLEIILEDDLVDSARPGDRVKVTGILDIKQDSPVKRGSRAVFDIYMKVSSIEVSQKVLDEVIISEEDEKKIKDLAKDPWIRDRIISSIAPSIYGHWELKEALALALFGGVPKVAEDTRIRGDIHILIIGDPGTAKSQMLQFISRVAPRAVYTTGKGSTAAGLTAAVVREKGTGEYYLEAGALVLADGGIAVIDEIDKMRDEDRVAIHEAMEQQTVSIAKAGIVAKLNARAAVIAAGNPKFGRYISERPVSDNINLPPTILSRFDLIFILKDQPGEQDRELANYILDVHSGKSTKNIIDIDTLRKYIAYARKYVTPKITSEAKNLITDFFVEMRKKSSETPDSPILITPRQLEALIRISEAYAKMALKAEVTREDAERAINIMRLFLESVGVDMESGKIDIDTIMTGKPKSAREKMMKIIEIIDSLAVSSECAKVKDILKEAQQVGIEKSNIEKLLTDMRKSGIIYEAKPECYKKV
notes: MCM of Sulfolobus solfataricus with L325A; source: cloned and purified (Resource Q anion exchange, size-exclusion chromatography) as described previously [15]
**Q.** How did the Km ([2]; mutant M3) turn out when B1 was run?
**A.** 270 ± 40 nM

**Q.** What about the kcat ([2]; mutant M3) of the same molecule?
**A.** 0.0783 ± 0.005 s⁻¹

**Q.** What about the “stoichiometry N” value [3] of the same molecule?
**A.** 6

B2: ssoMCM mutant M4 (VL324AA) (enzyme, Sulfolobus solfataricus, UniProt Q9UXG1 1-686, looked up)
chain: MEIPSKQIDYRDVFIEFLTTFKGNNNQNKYIERINELVAYRKKSLIIEFSDVLSFNENLAYEIINNTKIILPILEGALYDHILQLDPTYQRDIEKVHVRIVGIPRVIELRKIRSTDIGKLITIDGILVKVTPVKERIYKATYKHIHPDCMQEFEWPEDEEMPEVLEMPTICPKCGKPGQFRLIPEKTKLIDWQKAVIQERPEEVPSGQLPRQLEIILEDDLVDSARPGDRVKVTGILDIKQDSPVKRGSRAVFDIYMKVSSIEVSQKVLDEVIISEEDEKKIKDLAKDPWIRDRIISSIAPSIYGHWELKEALALALFGGVPKAAEDTRIRGDIHILIIGDPGTAKSQMLQFISRVAPRAVYTTGKGSTAAGLTAAVVREKGTGEYYLEAGALVLADGGIAVIDEIDKMRDEDRVAIHEAMEQQTVSIAKAGIVAKLNARAAVIAAGNPKFGRYISERPVSDNINLPPTILSRFDLIFILKDQPGEQDRELANYILDVHSGKSTKNIIDIDTLRKYIAYARKYVTPKITSEAKNLITDFFVEMRKKSSETPDSPILITPRQLEALIRISEAYAKMALKAEVTREDAERAINIMRLFLESVGVDMESGKIDIDTIMTGKPKSAREKMMKIIEIIDSLAVSSECAKVKDILKEAQQVGIEKSNIEKLLTDMRKSGIIYEAKPECYKKV
notes: MCM of Sulfolobus solfataricus with the double mutation VL324AA (V324 and L325 to alanine); source: cloned and purified (Resource Q anion exchange, size-exclusion chromatography) as described previously [15]
**Q.** B2 was tested. Which Km ([2]; mutant M4, printed VL324AA) did it give?
**A.** 230 ± 10 nM

**Q.** And the kcat ([2]; mutant M4, printed VL324AA)?
**A.** 0.065 ± 0.00167 s⁻¹

**Q.** And the “stoichiometry N” value [3]?
**A.** 6
